Laboratory results taken from the supplement of paper PMC10567573.
± gives the standard deviation.

Experiment: protein stability index of a GFP-peptide fusion (GPS, HEK-293T) (PSI 1-6); higher = more stable
Conditions: c terminus: a fixed tail appended
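Further: 24-mer peptide tiles fused after GFP, lentivirally expressed, FACS-sorted into six equal bins by GFP/DsRed ratio, decoded by Illumina sequencing, PSI is the read-weighted mean bin number.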

Sequence | protein stability index (treatment: DMSO) | protein stability index (treatment: MLN4924 1 uM, 8 h)
DLEELSLGPRDAGTRGRLESAQAT [ARFIP2] | 5.14 ± 0.083 | 5.06 ± 0.1
LRQEMVNLRATDVRLMRQLLVINE [LURAP1L] | 2.35 ± 0.081 | 2.48 ± 0.34
DFALINKLDIQCDLKTLSDDIKES [ATE1] | 4.15 ± 0.14 | 4.18 ± 0.39
IDNANRILGPAYFVTYVFFVFFVL [PKD2L1] | 2.67 ± 0.71 | 2.67 ± 0.6
YETVAAATSESTTVEPGKLDVGAT [DRICH1] | 5.36 ± 0.2 | 5.43 ± 0.32
MATITCTRFTEEYQLFEELGKGAF [CAMK2A] | 2.35 ± 0.23 | 2.44 ± 0.4
DKPLMPYMRYSRKVWDQVKASNPD [SMARCE1] | 3.27 ± 0.53 | 3.44 ± 0.17
PQEPRPPKRATKPKKAPKREKSAP [CPXM2] | 5.14 ± 0.46 | 5.42 ± 0.18
EELEFQYRRVNELLLSILNPTRQD [ZER1] | 3.01 ± 0.26 | 3.04 ± 0.31
QFYMFGWTHVTLLIVVTQSHLVIH [CDS2] | 2.85 ± 0.37 | 3.31 ± 0.59
ILSEEGRRQQAKLKELQAIAERLG [KCNAB2] | 3.57 ± 0.38 | 3.73 ± 0.3
PKPSVLFLHPDLGVGGAERLVLDA [ALG2] | 3.23 ± 0.29 | 3.15 ± 0.23
EKKDLKLEPPEEEIIEGNTKSHIM [NECAB1] | 5.46 ± 0.17 | 5.43 ± 0.14
KIEIQTLTGLFKGDKCHSLVGKPK [CASP6] | 3.01 ± 0.12 | 3.15 ± 0.42
VVACDFSPDGALLATASYDTRVYI [WSB1] | 3.41 ± 0.6 | 2.74 ± 0.83
FRGRRDVSGSWERDQQVEAAQRAL [RETREG3] | 4.48 ± 0.27 | 4.28 ± 0.23
RADEPQWSLYPSDSQVSEEVKTRH [CHGB] | 5.18 ± 0.068 | 5.18 ± 0.064
FPSTSYNARLQAMWGQSLLPPVST [TNXB] | 2.36 ± 0.32 | 2.51 ± 0.35
VYSVSVDQKERCIIVRTTNKKYYK [DPCD] | 2.14 ± 0.14 | 2.21 ± 0.38
LDTGTNYDYVREFKRSTGTWHHTK [GAN] | 3.34 ± 0.11 | 3.42 ± 0.25
VVRYLLEQRADPNAKAHCGATALH [FEM1B] | 2.23 ± 0.21 | 2.34 ± 0.18
PGSQALPAPALAPDQLPQNNTLVA [FBXO28] | 4.74 ± 0.35 | 4.88 ± 0.37

Sequence | protein stability index (treatment: DMSO) | protein stability index (treatment: MLN4924 1 uM, 8 h)
DSKIVVPPLPGKALKRQLPFRGDE [SNX12] | 4.35 ± 0.21 | 4.36 ± 0.1
EQEDPADYCKGGYHPVKIGDLFNG [SRPK2] | 3.9 ± 0.32 | 3.98 ± 0.47
YPTSDQEGDPGSKQPRKKRGRYRQ [LCOR] | 5.3 ± 0.23 | 5.45 ± 0.27
RRPHELLPVGGRLPGPTRPVLGRR [HAGHL] | 4.67 ± 0.16 | 4.92 ± 0.4
DLALDLGPQSRELTLKVLRSSSCG [C2CD2L] | 3.28 ± 0.18 | 3.62 ± 0.34
NKHLTTHQGIKPYKCSWCGKSFSQ [ZNF75A] | 2.35 ± 0.45 | 2.06 ± 0.37
PICVQIPWDKNPEALAKWAEGRTG [CRY1] | 3.51 ± 0.35 | 3.6 ± 0.24
LVETAIQSLDEPGGATFLLTAKQL [TRIM63] | 2.75 ± 0.14 | 2.66 ± 0.45
ECQLYPRRSQQQQVPVVDFQAELR [SNURF] | 4.3 ± 0.18 | 4.31 ± 0.084
RSPLVSGDESSLLLNAASTVARPV [RHOBTB3] | 4.31 ± 0.17 | 4.25 ± 0.26
VAALVVNFSQPVAGRPSLLRHDEV [NLN] | 2.46 ± 0.49 | 2.48 ± 0.36
LIALLTWGYIRYSGQYRELGGAID [ATL3] | 3.4 ± 0.13 | 3.52 ± 0.17
LGDPPPLLTLPRPPLSGALASITE [HDAC6] | 4.33 ± 0.38 | 4.41 ± 0.32
ADAVNLTIPASLDLSPLLGFWQLP [PLAGL1] | 2.28 ± 0.27 | 2.28 ± 0.23
PEADCIPKEQLSTSFQWVTKWVDY [PLK2] | 3.01 ± 0.34 | 2.8 ± 0.48
EKDQEQVVMNLDSRLLIFPLYICC [GMCL1] | 2.74 ± 0.75 | 2.74 ± 0.67
INSDTGVLYALRSFDYEQFHELQM [PCDHGA10] | 2.2 ± 0.2 | 2.35 ± 0.29
HLHLETFKAVLDGLDVLLAQEVRP [PRAME] | 2.18 ± 0.43 | 1.98 ± 0.29
LHRLFREKSLDQLKSISAEEILTL [PHTF1] | 2.11 ± 0.45 | 2.25 ± 0.47
TTGLQVPSAVRCLQKRGSATSSSN [FSD1] | 4.13 ± 0.12 | 3.99 ± 0.14
AQILPSRVQGGCYRFDSSSCSSED [DRICH1] | 4.05 ± 0.26 | 3.92 ± 0.35
AALGSRGSCSTEVEKETQEKMTIL [ATP6V1G1] | 2.52 ± 0.47 | 2.52 ± 0.55

Sequence | protein stability index (treatment: DMSO) | protein stability index (treatment: MLN4924 1 uM, 8 h)
GWSTPPKCRSTISAEKCGPPPPID [CFHR2] | 3.72 ± 0.38 | 3.93 ± 0.25
EELAKKRFKDKSSEEAVREVHRLI [TPPP] | 3.54 ± 0.24 | 3.41 ± 0.27
PHMAEQTFEQAIQAASRIIRNEQF [CDC25B] | 3.1 ± 0.29 | 3.39 ± 0.17
NSQVHRETEDVDYGETDFHKQDGK [TMEM40] | 5.54 ± 0.12 | 5.52 ± 0.17
RLGWQQQAELQELEERLQLQFEAE [MTUS2] | 4.55 ± 0.24 | 4.65 ± 0.11
SETPKSQVGTLLFRSRSRLTHLSL [CDC25B] | 2.43 ± 0.12 | 2.53 ± 0.3
SDPARYEFLWGPRAHAEIRKMSLL [MAGEA10] | 2.46 ± 0.3 | 2.49 ± 0.53
DSLLVVLDMDEGTLSFIVDGQYLG [SPSB4] | 2.52 ± 0.53 | 2.6 ± 0.69
YSSQLSQVQSLITNVESQLAEIRC [KRT34] | 3.07 ± 0.21 | 3.24 ± 0.24
TLGGLNPSPSEVITPWTPSPSEKN [SMTNL2] | 5.21 ± 0.25 | 5.08 ± 0.14
LVELPASFRELLTFFCTNATIHGA [SCNN1D] | 2.79 ± 0.38 | 2.63 ± 0.49
ELKRRVAEELALEQAKKESEDQKR [CHCHD3] | 4.14 ± 0.32 | 4.37 ± 0.082
PRCPGSVNEKLPQREGTGKTVSLQ [SMOC2] | 5.03 ± 0.14 | 5.03 ± 0.54
AFHRKSHSLDLNISEKLTLLPTLY [RNF180] | 2.34 ± 0.39 | 2.1 ± 0.34
QKQLEQTLQQFNIKLRPPGAEKPS [ARFIP2] | 3.92 ± 0.098 | 4.07 ± 0.19
LKLARKAYHDPMLKLSIMSEEELT [NET1] | 3.06 ± 0.2 | 3.14 ± 0.21
RTIYHMFIALLILFILSTLVVDYI [SOAT1] | 2.84 ± 1.7 | 2.17 ± 0.28
LSWFILHARYRVIHFIAVAVCLLG [SLC35F2] | 2.49 ± 0.12 | 2.83 ± 0.91
YHPVKIGDLFNGRYHVIRKLGWGH [SRPK2] | 2.79 ± 0.55 | 2.24 ± 0.22
PASPNPFVHELHLSRLQRVKFCLL [LPCAT4] | 2.56 ± 0.6 | 2.51 ± 0.3
LEEALYEYQPLQIETYGPHVPELE [MNAT1] | 3.25 ± 0.6 | 3.65 ± 0.47
